This is an account of results in article PMC3640046, “Structural Insights into a Wildtype Domain of the Oncoprotein E6 and Its Interaction with a PDZ Domain” (PLoS ONE, 2013).

Read-outs that look alike come from different tables or passages of the source. Residues, ends and D or L forms follow the SMILES beside them. No end group written: not given here. A value given as a limit tells only on which side of the number the result lay.

The target of data set [1] is T1, hDlgPDZ2 (Homo sapiens, UniProt Q12959).
T1 construct: host or cells: E. coli BL21 (DE3)
The conditions noted are these: cited from earlier work. An excerpt:
51Z2 contains a carboxy-terminal PDZ-BM and the full-length protein causes the degradation of hDlg in vitro [32].

Data set [2] deals with hDlg. The conditions noted are these: in vitro degradation assay; cited from earlier work. An excerpt:
One PDZ domain containing protein targeted by E6 for degradation in vivo is the multi-domain protein hDlg (human Dlg/hDlg1/SAP-97). […] Human Dlg is part of the Scribble polarity complex that controls basolateral polarity and it is required for adherens junction formation and differentiation of epithelial cells. Human Dlg is expressed in human keratinocytes and localizes to nuclear, cytoplasmic, membrane-associate ...

The target in data set [3] is T1, hDlgPDZ2. Kind of data set: Surface plasmon resonance (SPR) of hDlgPDZ2 with E6-derived peptides. Type of data set: binding. Conditions: for kon: read-out: ka. The procedure: Figure 5 51Z2 derived E6CT6 peptide versus E6CT11 peptide binding to hDlgPDZ2. SPR data. A E6CT6, B E6CT11. Sensorgrams of E6CT6 and E6CT11 binding injected in triplicate (black lines) are shown overlaid with the best fit derived from a 1∶1 interaction model including a mass transport term (orange lines). Peptide concentrations of 3.125, 6.25, 12.5, 25, 50, 100 and 200 µM are shown. The binding parameters were obtained by kinetic analysis of association and dissociation phases (left panels) or by steady state analysis (right panels) utilizing signals of plateaus depicted in the corresponding left panel.
A detailed description of methods is provided in Text S1. Briefly, recombinant proteins were generated in E. coli BL21 (DE3). Cells were disrupted and protein solubility in cell-lysates was assessed. Soluble proteins were FPLC-purified and initially characterized by CD spectroscopy, dynamic light scattering, gel filtration chromatography and NMR spectroscopy. The affinity of E6-derived peptides to hDlgPDZ2 was elucidated utilizing Surface Plasmon Resonance. hDlgPDZ2 was generated by bacterial expression and FPLC purification. The generation of the labeled E6CT11 peptide was performed as previously described. The purified, monomeric 51Z2 and the purified, monomeric hDlgPDZ2 in complex with purified E6CT11 were subsequently structurally characterized by standard solution state NMR techniques.
[1H-‐15N]-‐HSQC-‐spectra

Data set [4] is classed as physicochemical. The conditions noted are these: N-terminal His6-tag, E. coli BL21(DE3), 20 °C overnight expression with 10 µM Zn2+; cell extract in lysis buffer pH 7.3; centrifugation 10,000 x g, 4 °C, 30 min; Coomassie stained SDS-PAGE. The procedure:
Assessment of solubility of amino-terminally His6-tagged, recombinant E6 constructs derived from the high-risk types 16, 18, 26, 31, 45, 51, 59 and 97 as well as for the non-tumorigenic cutaneous type 1a was performed after bacterial expression in presence of 10 µM of Zn^2+ as solubility of E6 constructs is dependent on low µM concentrations of zinc. None of the wild-type sequence full-length E6 constructs nor their respective N-terminal zinc-binding domain (ZBD) turned out to be soluble (Table S1). […] The soluble constructs are denoted as E6Z2 (e.g. 51Z2 stands for the second, i.e. C-terminal, ZBD of HPV 51 E6). […]

Data set [5] has as its target T2, second PDZ domain of human Dlg (hDlg/hDlg1/SAP-97) (human, UniProt Q12959 318-406, 15N labelled in the titrations with the peptides).
T2 construct: also called hDlgPDZ2; PDZ domain 2 of hDlg; source: bacterial expression, FPLC purification
Kind of data set: SPR; peptides injected in triplicate at 3.125, 6.25, 12.5, 25, 50, 100 and 200 µM; kinetic analysis (1:1 interaction model with a mass transport term) and steady state analysis. Conditions: both partners purified. In general terms: In SPR one partner is held on a chip, and binding of the other changes the refractive index at the surface.

The target in data set [6] is T3, second PDZ domain of human Dlg (hDlg/hDlg1/SAP-97) (human, UniProt Q12959 318-406, 15N labelled in the titrations with the peptides).
T3 chain: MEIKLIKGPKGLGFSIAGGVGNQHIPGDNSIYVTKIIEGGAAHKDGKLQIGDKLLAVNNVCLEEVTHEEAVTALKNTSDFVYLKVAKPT
Kind of data set: SPR; kinetic analysis.

Data set [7] concerns the target T2, second PDZ domain of human Dlg …. Kind of data set: NMR titration; [1H,15N]-HSQC of 100 µM 15N labeled 51Z2 without or with 3 fold excess of unlabeled hDlgPDZ2; slow exchange on the NMR time scale. The conditions noted are these: both partners purified.
Setting [8] is: kinetic analysis, 1:1 interaction model including mass transport term, 25 °C, pH 7.4.
Setting [9] is: kinetic analysis, 1:1 interaction model including mass transport term, Biacore 2000, 25 °C, His6-tagged hDlgPDZ2 on NTA chip, peptide 3.125-200 µM, 150 mM NaCl, 10 mM HEPES, 3 mM EDTA, 0.005% polysorbate 20, pH 7.4, injected in triplicate, read-out: KD (kinetic analysis).

By Kd is commonly meant the concentration at which binding is half-saturated. For orientation: koff means the rate constant with which the complex falls apart.

Consider “HPV 18 E6: E6 oncoprotein of high-risk HPV 18”, for which the “interaction with hDlgPDZ2” value in data set [1] is “interact with hDlgPDZ2”. For the same molecule, the “E6 dependent reduction of hDlg levels” value in data set [2] is “reduction of hDlg levels”.

With `CC(=O)N[C@@H](CCCNC(=N)N)C(=O)N[C@@H](CC(N)=O)C(=O)N[C@@H](CCC(=O)O)C(=O)N[C@H](C(=O)N[C@@H](CCC(N)=O)C(=O)N[C@H](C(=O)O)C(C)C)[C@@H](C)O` [E6CT6, Ac-RNETQV] (Ac-RNETQV-OH), the kon in data set [3] (setting [8]) amounted to 54000 M⁻¹ s⁻¹. In data set [3] (setting [9]), the Kd is 28.42 ± 0.05 µM.

“18 E6FL: full-length HPV 18 E6, His6-tagged”: the “solubility of recombinant E6 construct” value in data set [4] is recorded as “Insoluble”.

Regarding `CC(=O)N[C@@H](CCC(N)=O)C(=O)N[C@@H](CCCNC(=N)N)C(=O)N[C@H](C(=O)N[C@@H](CCCNC(=N)N)C(=O)N[C@@H](CCC(N)=O)C(=O)N[C@@H](CCCNC(=N)N)C(=O)N[C@@H](CC(N)=O)C(=O)N[C@@H](CCC(=O)O)C(=O)N[C@H](C(=O)N[C@@H](CCC(N)=O)C(=O)N[C@H](C(=O)O)C(C)C)[C@@H](C)O)[C@@H](C)O` [E6CT11, Ac-QRTRQRNETQV] (Ac-QRTRQRNETQV-OH), the Kd in data set [3] (SPR, 25 °C, pH 7.4, read-out: Kd) is less than 10 µM; in data set [3] (setting [9]) it was 9.79 ± 0.03 µM; in data set [3] (steady state analysis utilizing signals of plateaus, Biacore 2000, 25 °C, His6-tagged hDlgPDZ2 on NTA chip, peptide 3.125-200 µM, 150 mM NaCl, 10 mM HEPES, 3 mM EDTA, 0.005% polysorbate 20, pH 7.4, injected in triplicate, read-out: KD (steady state analysis)) it was 9.63 ± 0.02 µM. Besides, the kon in data set [3] (setting [8]) is 104000 M⁻¹ s⁻¹.

B1: 31 (co) E6FL: full-length HPV 31 E6, His6-tagged (protein, UniProt P17386 1-149, looked up)
chain: MFKNPAERPRKLHELSSALEIPYDELRLNCVYCKGQLTETEVLDFAFTDLTIVYRDDTPHGVCTKCLRFYSKVSEFRWYRYSVYGTTLEKLTNKGICDLLIRCITCQRPLCPEEKQRHLDKKKRFHNIGGRWTGRCIACWRRPRTETQV
modifications: full-length His6 tag
notes: full-length HPV 31 E6, His6-tagged
Regarding B1, the “solubility of recombinant E6 construct” value in data set [4] was “Insoluble”.

B2: E6CT11, 11mer peptide representing the complete disordered C-terminus of HPV 51 E6 (Ac-QRTRQRNETQV) (peptide)
peptide: Ac-QRTRQRNETQV
notes: HPV 51 E6 residues 141 to 151; also called E6CT11 peptide
For the molecule B2, in data set [5], the Kd was found to be 9.6 µM and the “fold change of the association rate against E6CT6” value was roughly 2 fold. Moreover, the koff in data set [6] stood at 1.01 s⁻¹.

In the case of Ac-RNETQV (also called E6CT6 peptide) [E6CT6, N-terminally truncated 6mer peptide of the HPV 51 E6 C-terminus (Ac-RNETQV)], the affinity in data set [5], expressed as Kd, was 28.3 µM. This molecule gave a koff in data set [6] of 1.53 s⁻¹.

B3: 45 E6FL: full-length HPV 45 E6, His6-tagged (protein, UniProt P21735 1-158, looked up)
chain: MARFDDPKQRPYKLPDLCTELNTSLQDVSIACVYCKATLERTEVYQFAFKDLCIVYRDCIAYAACHKCIDFYSRIRELRYYSNSVYGETLEKITNTELYNLLIRCLRCQKPLNPAEKRRHLKDKRRFHSIAGQYRGQCNTCCDQARQERLRRRRETQV
modifications: full-length His6 tag
notes: full-length HPV 45 E6, His6-tagged
For B3, the “solubility of recombinant E6 construct” value in data set [4] was “Insoluble”.

B4: 16 (co) E6FL: full-length HPV 16 E6, His6-tagged (protein, UniProt P03126 1-158, looked up)
chain: MHQKRTAMFQDPQERPRKLPQLCTELQTTIHDIILECVYCKQQLLRREVYDFAFRDLCIVYRDGNPYAVCDKCLKFYSKISEYRHYCYSLYGTTLEQQYNKPLCDLLIRCINCQKPLCPEEKQRHLDKKQRFHNIRGRWTGRCMSCCRSSRTRRETQL
modifications: full-length His6 tag
notes: full-length HPV 16 E6, His6-tagged
For the molecule B4, the “solubility of recombinant E6 construct” value in data set [4] is reported as “Insoluble”.

B5: HPV 16 E6: E6 oncoprotein of high-risk HPV 16 (protein, UniProt P03126 1-158, looked up)
Protein E6: MHQKRTAMFQDPQERPRKLPQLCTELQTTIHDIILECVYCKQQLLRREVYDFAFRDLCIVYRDGNPYAVCDKCLKFYSKISEYRHYCYSLYGTTLEQQYNKPLCDLLIRCINCQKPLCPEEKQRHLDKKQRFHNIRGRWTGRCMSCCRSSRTRRETQL
Turning to B5, the “interaction with hDlgPDZ2” value in data set [1] is “interact with hDlgPDZ2”. In data set [2], the “E6 dependent reduction of hDlg levels” value is on record as “reduction of hDlg levels”.

B6: second (C-terminal) zinc-binding domain of HPV 51 E6 (domain or fragment)
chain: GSHMSRSVYGTTLEAITKKSLYDLSIRCHRCQRPLGPEEKQKLVDEKKRFHEIAGRWTGQCANCWQRTRQRNETQV
modifications: 15N labelled in the titration with hDlgPDZ2; binds one zinc ion
notes: source: E. coli BL21 (DE3), FPLC-purified
Consider B6, for which the binding result in data set [7] was “binds”.
